# Experimental data taken from patent US20080160015A1.
# How the values were obtained:
# [1] = target: human monoclonal anti-C1 domain of Factor VIII inhibitory antibody RHD5; experiment: competition ELISA: 18B6 at 0.78 µg/ml with RHD5 2 µg/ml, RHD5 binding to coated recFVIII detected
# [2] = target: human monoclonal anti-C1 domain of Factor VIII inhibitory antibody RHD5; experiment: competition ELISA: 18B6 at 6.25 µg/ml with RHD5 2 µg/ml, RHD5 binding to coated recFVIII detected
# [3] = target: human monoclonal anti-C1 domain of Factor VIII inhibitory antibody RHD5; experiment: competition ELISA: 18B6 at 50 µg/ml with RHD5 2 µg/ml, RHD5 binding to coated recFVIII detected
# [4] = target: human monoclonal anti-C1 domain of Factor VIII inhibitory antibody RHD5; experiment: competition ELISA: 18B6 at 3.12 µg/ml with RHD5 2 µg/ml, RHD5 binding to coated recFVIII detected
# [5] = target: human monoclonal anti-C1 domain of Factor VIII inhibitory antibody RHD5; experiment: competition ELISA: 18B6 at 25 µg/ml with RHD5 2 µg/ml, RHD5 binding to coated recFVIII detected
# [6] = target: human monoclonal anti-C1 domain of Factor VIII inhibitory antibody RHD5; experiment: competition ELISA: 18B6 at 0.39 µg/ml with RHD5 2 µg/ml, RHD5 binding to coated recFVIII detected
# [7] = target: human monoclonal anti-C1 domain of Factor VIII inhibitory antibody RHD5; experiment: SPR (BIAcore), RHD5 immobilized on CM5, 18B6 infused
# [8] = target: human monoclonal anti-C1 domain of Factor VIII inhibitory antibody RHD5; experiment: competition ELISA: supernatant preincubated with RHD5 (0.6 µg/ml), RHD5 binding to coated recFVIII detected
# [9] = target: human monoclonal anti-C1 domain of Factor VIII inhibitory antibody RHD5; experiment: cell-based or functional assay
# [10] = target: human monoclonal anti-C1 domain of Factor VIII inhibitory antibody RHD5; experiment: competition ELISA: 18B6 at 0.195 µg/ml with RHD5 2 µg/ml, RHD5 binding to coated recFVIII detected
# [11] = target: human monoclonal anti-C1 domain of Factor VIII inhibitory antibody RHD5; experiment: competition ELISA: 18B6 at 1.56 µg/ml with RHD5 2 µg/ml, RHD5 binding to coated recFVIII detected
# [12] = target: human monoclonal anti-C1 domain of Factor VIII inhibitory antibody RHD5; experiment: competition ELISA: 18B6 with RHD5 2 µg/ml, RHD5 binding to coated recFVIII detected
# [13] = target: human monoclonal anti-C1 domain of Factor VIII inhibitory antibody RHD5; experiment: competition ELISA: 18B6 at 12.5 µg/ml with RHD5 2 µg/ml, RHD5 binding to coated recFVIII detected
# [14] = target: human monoclonal anti-C1 domain of Factor VIII inhibitory antibody RHD5; experiment: competition ELISA: 18B6 at 0.098 µg/ml with RHD5 2 µg/ml, RHD5 binding to coated recFVIII detected
binder,measurement,setting,value
"monoclonal anti-idiotypic antibody 18B6 (antibody, V domains shown, mouse IgG1 kappa constant regions) VH: QVQLQQSGAELAKPGASVKMSCKASGYTFTTYWMHWIKQRPGQDLEWIGYINPTSGYTEYNQNFKDKATLTADKSSSTAYMQLNSLTSEDSAVYFCARSGAYYRYDDAMDSWGQGTSVTVSS VL: QIVLSQSPAILSASPGEKVTMTCRASSSVSYMNWYQQKPGSSPKPWIYATSNLASGVPARFSGSGSGTSYSLTISRVEAEDAATYYCQQWSSNPPMLTFGAGTKLELK",Inhibition of binding (%),[1],50.3%
same,Inhibition of binding (%),[2],96.7%
same,Inhibition of binding (%),[3],96.1%
same,Inhibition of binding (%),[4],94.1%
same,Inhibition of binding (%),[5],97.2%
same,Inhibition of binding (%),[6],9.2%
same,Kd,[7],3.4 nM
same,koff,[7],1.45e-05 s⁻¹
same,kon,[7],4260 M⁻¹ s⁻¹
same,Inhibition: Elisa (%),[8],93.1%
same,"Neutralisation (%) of RHD5 (0.4 µg/ml) inhibitory activity, chromogenic FVIII assay, anti-Id at 0.0002 µg/ml",[9],0%
same,"Neutralisation (%) of RHD5 (0.4 µg/ml) inhibitory activity, chromogenic FVIII assay, anti-Id at 0.0006 µg/ml",[9],6.7%
same,"Neutralisation (%) of RHD5 (0.4 µg/ml) inhibitory activity, chromogenic FVIII assay, anti-Id at 0.00183 µg/ml",[9],8.9%
same,"Neutralisation (%) of RHD5 (0.4 µg/ml) inhibitory activity, chromogenic FVIII assay, anti-Id at 0.0055 µg/ml",[9],6.7%
same,"Neutralisation (%) of RHD5 (0.4 µg/ml) inhibitory activity, chromogenic FVIII assay, anti-Id at 0.0165 µg/ml",[9],8.8%
same,"Neutralisation (%) of RHD5 (0.4 µg/ml) inhibitory activity, chromogenic FVIII assay, anti-Id at 0.049 µg/ml",[9],11%
same,"Neutralisation (%) of RHD5 (0.4 µg/ml) inhibitory activity, chromogenic FVIII assay, anti-Id at 0.148 µg/ml",[9],27.4%
same,"Neutralisation (%) of RHD5 (0.4 µg/ml) inhibitory activity, chromogenic FVIII assay, anti-Id at 0.44 µg/ml",[9],54.3%
same,"Neutralisation (%) of RHD5 (0.4 µg/ml) inhibitory activity, chromogenic FVIII assay, anti-Id at 1.33 µg/ml",[9],81.2%
same,"Neutralisation (%) of RHD5 (0.4 µg/ml) inhibitory activity, chromogenic FVIII assay, anti-Id at 4 µg/ml",[9],89.5%
same,"Neutralization: functional test (chromogenic FVIII assay, RHD5 1 µg/ml with supernatant, FVIII Kogenate 0.5 U/ml)",[9],100%
same,neutralisation of RHD5 inhibitory activity at an equimolar RHD5/18B6 ratio,[9],50%
same,Inhibition of binding (%),[10],0%
same,Inhibition of binding (%),[11],90.3%
same,inhibition of binding at an equimolar ratio (%),[12],92%
same,molar ratio RHD5/18B6 at 50% inhibition (molar ratio RHD5/18B6),[12],2.5
same,Inhibition of binding (%),[13],96.9%
same,Inhibition of binding (%),[14],0%
